From publication PMC7028823, “EF1025, a Hypothetical Protein From Enterococcus faecalis, Interacts With DivIVA and Affects Cell Length and Cell Shape” (Frontiers in Microbiology, 2020) come the findings set out here.

Data set [1] has as its target DivIVAEf (bacterial two-hybrid fusion) (Enterococcus faecalis JH2-2) (UniProt Q93C53). As to the kind of experiment: two-hybrid; bacterial two-hybrid (Di Lallo) in E. coli R721, vectors pcI434-L and pcIp22-L, 0.1 mM IPTG; residual β-galactosidase activity, less than 50% indicates a positive interaction.
Data set [2] deals with the molecule itself. Kind of data set: SEC-MALS; 1 mg purified 6×His-EF1025 on Superdex 200 in 50 mM Tris base, 400 mM NaCl, pH 7.4; also with 1 mM dithiothreitol. Background: SEC sorts molecules by how far they enter the pores of the column.

On to “EF1025-c (AA80-209 of EF1025), bacterial two-hybrid fusion (domain or fragment)”, for which the residual β-galactosidase activity in data set [1] came out at 14%.

B1: 6×His-EF1025 (natural protein, Enterococcus faecalis JH2-2, UniProt Q836T2 1-209, looked up)
chain: MKLSKRQEQIIAVVKEHQPVSGERISDILAVSRATLRSDLSFLTLSGILKASPKVGYTYESDNMEAFFFFDVFQTKVQEIMSPPLMVAQDTSIRDAITNLFMYDVGSLYVMDEAKELLGVLSRKDLLRASLNTNIDGTPVAVCMTRVPHVKTCTPEFTILEAADTLQKYEVDSLPVVEKENPKKVIGKITKTKILTYITQQAKEAAQNR
notes: hypothetical protein EF1025 of Enterococcus faecalis (209 AA), gene amplified with primers EF1025F-F/R and cloned into pET30a(+); Vector pET30a(+); also called pETEF1025; source: E. coli C41 (DE3), in lysate supernatant (pull-down); copies: 10
By stoichiometry N is commonly meant a count of units in the complex or per binding partner. Turning to B1, the “stoichiometry N” value in data set [2] came to 10.
